# Measurements reported in the supplement of paper PMC7125110.
# ± gives the standard error. For part of these data: Fewer inactive variants are shown than the library holds.
# B1: glmS ribozyme (parent)
# chain: AUAAAAGCGCCAGAACUACAGAAAUGUAGUUGACGAGGAGGAGGUUUAUCGAAUUUUCGGCGGAUGCCUCCAAA
# Assays:
# Conditions in all cases: with glucosamine-6-phosphate
# glucosamine-6-phosphate [1] = variants of: B1; experiment: kcat; higher = faster cleavage; RNA array
# Outline: (§1)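 Ribozyme variants carrying barcodes were transcribed in situ on sequenced MiSeq chips by E. coli RNA polymerase and tracked at 37 °C with a hybridised Cy3 probe. They were exposed to 40 μM to 10 mM glucosamine-6-phosphate in HEPES/KCl/Mg(OAc)2 buffer. kobs came from exponential decay fits of normalised per-tile medians, and kcat and KM from weighted Michaelis–Menten fits.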
# glucosamine-6-phosphate [2] = variants of: B1; experiment: KM; higher = weaker cofactor use; RNA array
# Outline: as §1
# glucosamine-6-phosphate [3] = variants of: B1; experiment: self-cleavage kobs at 2500 uM GlcN6P; higher = faster cleavage; RNA array
# Outline: as §1
# glucosamine-6-phosphate [4] = variants of: B1; experiment: self-cleavage kobs at 10000 uM GlcN6P; higher = faster cleavage; RNA array
# Outline: as §1
# glucosamine-6-phosphate [5] = variants of: B1; experiment: self-cleavage kobs at 40 uM GlcN6P; higher = faster cleavage; RNA array
# Outline: as §1
# glucosamine-6-phosphate [6] = variants of: B1; experiment: self-cleavage kobs at 160 uM GlcN6P; higher = faster cleavage; RNA array
# Outline: as §1
# glucosamine-6-phosphate [7] = variants of: B1; experiment: self-cleavage kobs at 640 uM GlcN6P; higher = faster cleavage; RNA array
# Outline: as §1
Variant,kcat (glucosamine-6-phosphate [1]),KM (glucosamine-6-phosphate [2]),self-cleavage kobs at 2500 uM GlcN6P (glucosamine-6-phosphate [3]),self-cleavage kobs at 10000 uM GlcN6P (glucosamine-6-phosphate [4]),self-cleavage kobs at 40 uM GlcN6P (glucosamine-6-phosphate [5]),self-cleavage kobs at 160 uM GlcN6P (glucosamine-6-phosphate [6]),self-cleavage kobs at 640 uM GlcN6P (glucosamine-6-phosphate [7])
A6C U54A,0.000158 ± 2.8e-05 s⁻¹,6.6 ± 2.3 mM,4.87e-05 ± 1.5e-05 s⁻¹,9.38e-05 ± 1.7e-05 s⁻¹,,,
G9A G13U,< 1e-05 s⁻¹,,< 1e-05 s⁻¹,< 1e-05 s⁻¹,,,
A6C A14U,1.09e-05 ± 1.1e-06 s⁻¹,,,,,,
A6C A14C,1.13e-05 ± 5.2e-07 s⁻¹,5.84 ± 0.6 mM,,,,,
A6C C16G,1.5e-05 ± 3.9e-07 s⁻¹,9.79 ± 0.48 mM,,,< 1e-05 s⁻¹,< 1e-05 s⁻¹,< 1e-05 s⁻¹
A6U U45A,0.000657 ± 1.8e-05 s⁻¹,2.49 ± 0.13 mM,0.000337 ± 6.4e-05 s⁻¹,0.000523 ± 7.7e-05 s⁻¹,,,0.000134 ± 2e-05 s⁻¹
A6G C10U U56A,< 1e-05 s⁻¹,,,,< 1e-05 s⁻¹,,< 1e-05 s⁻¹
A6U A12C,0.000271 ± 9.3e-05 s⁻¹,,0.000111 ± 3.2e-05 s⁻¹,0.000168 ± 2.9e-05 s⁻¹,,,
A6U A12U,0.000909 ± 9.6e-05 s⁻¹,2.84 ± 0.51 mM,0.000426 ± 4.8e-05 s⁻¹,0.000715 ± 9.1e-05 s⁻¹,,6.32e-05 ± 1.6e-05 s⁻¹,0.000158 ± 2.3e-05 s⁻¹
C10G C50U,< 1e-05 s⁻¹,,,< 1e-05 s⁻¹,< 1e-05 s⁻¹,,
C10G A15G,1.16e-05 ± 4e-06 s⁻¹,,,,,,
G9A U49A A52G,< 1e-05 s⁻¹,,,,,,
C10A G13A,< 1e-05 s⁻¹,,,,< 1e-05 s⁻¹,< 1e-05 s⁻¹,
A6U G41A,1.73e-05 ± 2.5e-06 s⁻¹,,,,< 1e-05 s⁻¹,< 1e-05 s⁻¹,< 1e-05 s⁻¹
C10A C34U C67G C68G,4.25e-05 ± 6.7e-06 s⁻¹,,4.25e-05 ± 9.3e-06 s⁻¹,,,4.7e-05 ± 8.5e-06 s⁻¹,
A6C C50G,2.11e-05 ± 7.4e-06 s⁻¹,,,,,,
A6G A64G,1.81e-05 ± 5.8e-06 s⁻¹,,,,< 1e-05 s⁻¹,,
A6G U55A C68G,2.16e-05 ± 2.8e-06 s⁻¹,,,,,,
G9U U69G,1.33e-05 ± 5.4e-06 s⁻¹,,< 1e-05 s⁻¹,< 1e-05 s⁻¹,,,
C10G A12G A53C G59C,1.95e-05 ± 6.6e-06 s⁻¹,,,,,,
C11A G51U U65C C68U,3.35e-05 ± 9e-06 s⁻¹,,,,,,

Variant,kcat (glucosamine-6-phosphate [1]),KM (glucosamine-6-phosphate [2]),self-cleavage kobs at 2500 uM GlcN6P (glucosamine-6-phosphate [3]),self-cleavage kobs at 10000 uM GlcN6P (glucosamine-6-phosphate [4]),self-cleavage kobs at 40 uM GlcN6P (glucosamine-6-phosphate [5]),self-cleavage kobs at 160 uM GlcN6P (glucosamine-6-phosphate [6]),self-cleavage kobs at 640 uM GlcN6P (glucosamine-6-phosphate [7])
G7A C50A,< 1e-05 s⁻¹,,< 1e-05 s⁻¹,,< 1e-05 s⁻¹,< 1e-05 s⁻¹,
A6U G29U,5.83e-05 ± 3.7e-06 s⁻¹,5.56 ± 0.69 mM,,3.74e-05 ± 1.7e-05 s⁻¹,< 1e-05 s⁻¹,,
C10U C67G,2.65e-05 ± 6.6e-06 s⁻¹,,2.88e-05 ± 1.1e-05 s⁻¹,,,,
A6U A15C,7.81e-05 ± 1.6e-05 s⁻¹,4.25 ± 2 mM,2.58e-05 ± 7.8e-06 s⁻¹,5.56e-05 ± 8.2e-06 s⁻¹,< 1e-05 s⁻¹,,
A6U G51A C71A,5.19e-05 ± 1.7e-05 s⁻¹,,,,,,
A6G U65G,0.000323 ± 2.1e-05 s⁻¹,3.58 ± 0.5 mM,0.000141 ± 1.6e-05 s⁻¹,0.000234 ± 2e-05 s⁻¹,,,4.35e-05 ± 1e-05 s⁻¹
C10A G32U A53U C67U,1.23e-05 ± 4.1e-06 s⁻¹,,,,,,
C10A A12C,0.00025 ± 4.4e-05 s⁻¹,2.52 ± 0.93 mM,0.000143 ± 1.2e-05 s⁻¹,0.000185 ± 1.9e-05 s⁻¹,,,4.03e-05 ± 8.4e-06 s⁻¹
G9A A42G,1.5e-05 ± 2.2e-06 s⁻¹,,,,< 1e-05 s⁻¹,,
C10G C70A,< 1e-05 s⁻¹,,,< 1e-05 s⁻¹,,,
C10U A12U,0.000153 ± 2.3e-05 s⁻¹,3.2 ± 1.2 mM,8.4e-05 ± 1.2e-05 s⁻¹,0.000113 ± 9e-06 s⁻¹,,,1.92e-05 ± 6e-06 s⁻¹
A6U,0.000447 ± 1.4e-05 s⁻¹,2.74 ± 0.15 mM,0.00022 ± 4e-06 s⁻¹,0.000346 ± 6.3e-06 s⁻¹,,2.53e-05 ± 2.3e-06 s⁻¹,8.33e-05 ± 1.6e-06 s⁻¹
A6G,0.00068 ± 9.8e-05 s⁻¹,2.66 ± 0.49 mM,0.000467 ± 4.5e-05 s⁻¹,0.000533 ± 2.4e-05 s⁻¹,< 1e-05 s⁻¹,4.17e-05 ± 1.6e-06 s⁻¹,0.00013 ± 2.3e-06 s⁻¹
A6C,0.000141 ± 4.6e-06 s⁻¹,2.1 ± 0.18 mM,7.95e-05 ± 1.5e-06 s⁻¹,0.000115 ± 1.8e-06 s⁻¹,,< 1e-05 s⁻¹,3.13e-05 ± 1.1e-06 s⁻¹
A6C C16G U31C C34G C68A,1.74e-05 ± 6.6e-06 s⁻¹,,,,,,
C10U A12U C50U,2.27e-05 ± 6.7e-06 s⁻¹,,,,,,
A6G A12U,0.000134 ± 1.7e-05 s⁻¹,,0.000155 ± 2.1e-05 s⁻¹,0.000119 ± 1e-05 s⁻¹,,,7.58e-05 ± 1.1e-05 s⁻¹
A6U U55A,0.000365 ± 1.1e-05 s⁻¹,2.63 ± 0.16 mM,0.000173 ± 3.5e-05 s⁻¹,0.000291 ± 3.4e-05 s⁻¹,,,7.22e-05 ± 1.3e-05 s⁻¹
C10U U56C,2.01e-05 ± 2.1e-06 s⁻¹,,,,< 1e-05 s⁻¹,,
C10U U56G,3.3e-05 ± 4.5e-06 s⁻¹,,2.86e-05 ± 8.5e-06 s⁻¹,2.92e-05 ± 6.7e-06 s⁻¹,,,
A6G A15U,7.69e-05 ± 9.2e-06 s⁻¹,,7.01e-05 ± 1.2e-05 s⁻¹,6.82e-05 ± 6.2e-06 s⁻¹,< 1e-05 s⁻¹,,2.52e-05 ± 1e-05 s⁻¹
